The target in assay [1] is T1, Recombinant human TNF-alpha (human, UniProt P01375 77-233).
T1 construct: Bought reagent; also called rhTNF-alpha; TNF-α
Kind of assay: pre-incubation with 2.9 ng/ml rhTNF-alpha, ELISA of unbound rhTNF-alpha. On the procedure: (§1) A fixed concentration of 2.9 ng/ml rhTNF-alpha was used in all incubations. PEGylation was conducted in 5 time molar excess (5 eq) or 10 time molar excess (10 eq) of PEG20 compared etanercept. IC₅₀ is expressed as gram etanercept per ml.
(§2) Recombinant human TNF-alpha (rhTNF-alpha; AbCam PLC, Cambridge, UK; at a fixed concentration of 2.9 ng/ml) was mixed with different concentrations (29000 ng/ml—56.6 pg/ml) of non-PEGylated etanercept, PEG20-etanercept (5 eq) or PEG20-etanercept (10 eq). The pre-incubation mixtures were incubated in a refrigerator at 4-8° C. overnight. The amount of unbound rhTNF-alpha was analysed with a sensitive enzyme-linked immunosorbent assay (ELISA). In brief, 96-well plates (MaxiSorb, Nunc, Roskilde, Denmark) were used for the ELISA. Plates were coated with two anti-TNF-alpha monoclonal antibodies (TNF3/4, Mabtech AB, Nacka Strand, Sweden) diluted in PBS, pH 7.4, to a final concentration of 2 μg/ml. The 96-well plates were incubated in a refrigerator at 4-8° C. overnight. […] The optical density of the resultant yellow color was measured in a spectrophotometer at 450 nm.
A general note: An ELISA detects its analyte on a solid surface through an enzyme-linked reagent.

Assay [2] deals with T1, Recombinant human TNF-alpha. Kind of assay: pre-incubation with 2.9 ng/ml rhTNF-alpha, ELISA of unbound rhTNF-alpha, 4-parameter fit. On the procedure:
as §1, §2

T1 sequence (P01375 77-233 limits assumed): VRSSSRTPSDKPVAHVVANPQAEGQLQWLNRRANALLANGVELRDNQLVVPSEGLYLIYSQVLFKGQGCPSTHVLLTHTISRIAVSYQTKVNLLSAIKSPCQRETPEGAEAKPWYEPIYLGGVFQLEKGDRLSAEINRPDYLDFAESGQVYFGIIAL

B1: etanercept (ENBREL®), non-PEGylated (Fc fusion)
chain: LPAQVAFTPYAPEPGSTCRLREYYDQTAQMCCSKCSPGQHAKVFCTKTSDTVCDSCEDSTYTQLWNWVPECLSCGSRCSSDQVETQACTREQNRICTCRPGWYCALSKQEGCRLCAPLRKCRPGFGVARPGTETSDVVCKPCAPGTFSNTTSSTDICRPHQICNVVAIPGNASMDAVCTSTSPTRSMAPGAVHLPQPVSTRSQHTQPTPEPSTAPSTSFLLPMGPSPPAEGSTGDEPKSCDKTHTCPPCPAPELLGGPSVFLFPPKPKDTLMISRTPEVTCVVVDVSHEDPQVKFNWYVDGVQVHNAKTKPREQQYNSTYRVVSVLTVLHQNWLDGKEYKCKVSNKALPAPIEKTISKAKGQPREPQVYTLPPSREEMTKNQVSLTCLVKGFYPSDIAVEWESNGQPENNYKTTPPVLDSDGSFFLYSKLTVDKSRWQQGNVFSCSVMHEALHNHYTQKSLSLSPGK
notes: Commercial ENBREL (Wyeth Europa Ltd); also called etanercept (non-PEGylated); non-PEGylated etanercept
In the case of B1, the binding result in assay [1] is given as “binds”.

B2: PEG20-etanercept (5 eq) (Fc fusion)
chain: LPAQVAFTPYAPEPGSTCRLREYYDQTAQMCCSKCSPGQHAKVFCTKTSDTVCDSCEDSTYTQLWNWVPECLSCGSRCSSDQVETQACTREQNRICTCRPGWYCALSKQEGCRLCAPLRKCRPGFGVARPGTETSDVVCKPCAPGTFSNTTSSTDICRPHQICNVVAIPGNASMDAVCTSTSPTRSMAPGAVHLPQPVSTRSQHTQPTPEPSTAPSTSFLLPMGPSPPAEGSTGDEPKSCDKTHTCPPCPAPELLGGPSVFLFPPKPKDTLMISRTPEVTCVVVDVSHEDPQVKFNWYVDGVQVHNAKTKPREQQYNSTYRVVSVLTVLHQNWLDGKEYKCKVSNKALPAPIEKTISKAKGQPREPQVYTLPPSREEMTKNQVSLTCLVKGFYPSDIAVEWESNGQPENNYKTTPPVLDSDGSFFLYSKLTVDKSRWQQGNVFSCSVMHEALHNHYTQKSLSLSPGK
modifications: 20 KDa PEG (PEG20) conjugated via NHS-ester PEG reagent at 5 times molar excess; sites not stated
notes: also called PEGylated etanercept
In the case of B2, the “fold IC50 against non-PEGylated etanercept” value in assay [2] was under 2 fold.

B3: PEG20-etanercept (10 eq) (Fc fusion)
chain: LPAQVAFTPYAPEPGSTCRLREYYDQTAQMCCSKCSPGQHAKVFCTKTSDTVCDSCEDSTYTQLWNWVPECLSCGSRCSSDQVETQACTREQNRICTCRPGWYCALSKQEGCRLCAPLRKCRPGFGVARPGTETSDVVCKPCAPGTFSNTTSSTDICRPHQICNVVAIPGNASMDAVCTSTSPTRSMAPGAVHLPQPVSTRSQHTQPTPEPSTAPSTSFLLPMGPSPPAEGSTGDEPKSCDKTHTCPPCPAPELLGGPSVFLFPPKPKDTLMISRTPEVTCVVVDVSHEDPQVKFNWYVDGVQVHNAKTKPREQQYNSTYRVVSVLTVLHQNWLDGKEYKCKVSNKALPAPIEKTISKAKGQPREPQVYTLPPSREEMTKNQVSLTCLVKGFYPSDIAVEWESNGQPENNYKTTPPVLDSDGSFFLYSKLTVDKSRWQQGNVFSCSVMHEALHNHYTQKSLSLSPGK
modifications: 20 KDa PEG (PEG20) conjugated via NHS-ester PEG reagent at 10 times molar excess; sites not stated
notes: as for B2
Take B3: the “fold IC50 against non-PEGylated etanercept” value in assay [2] was under 2 fold.

(Values after patent US20140030278A1 (QUIAPEG PHARMACEUTICALS, published 2014).)
